Assay results published in patent publication US20030171276A1, “Preventives and remedies for chronic hepatitis” (priority 1999, published 2003).

Assays:
HCV = conditions: cited from earlier work
[1] = system: recombinant E2 protein binding to CD81 expressed in Jurkat cells; assay: Inhibition of binding of recombinant E2 protein to Jurkat cells (FACScan); assay type: cell-based, HCV; conditions: 1 μg recombinant E2 protein preincubated with 10 μL of 1 mg/mL solution, room temperature 1 hour; FIG. 14
Procedure: An oligopeptide capable of binding to HCV E2 antigen is reacted with the HCV E2 antigen to study whether or not binding of CD81 expressed in Jurkat cells purchased from DAINIPPON PHARMACEUTICAL CO., LTD. to the HCV E2 antigen is inhibited. By the study, whether or not the selected oligopeptide inhibits adhesion of the HCV E2 antigen to CD81-positive cells can be estimated. The inhibitory activity for adhesion of CD81 to the IICV E2 antigen was assayed in accordance with the literature. The concrete description will be given hereinbelow.
The Jurkat cells were prepared in the same manner as in item (1), and suspended in WB so as to have a concentration of 4×10^6 cells/mL, to give a Jurkat cell suspension. […]
Hereinafter, in the same manner as in the item (1) above, the resulting product was reacted with an FITC-labeled anti-mouse IgG1 antibody, and thereafter the reaction mixture was suspended in 0.2 mL of a 10% neutral buffered formalin solution. As to the resulting product, E2 protein bound to Jurkat cells was analyzed by using FACScan.
One microgram of the recombinant E2 protein, and 10 μL of the TAPA148, bLF or bLF443 solution obtained in item (4) above were added to a 6 mm rounded-bottom tube and, and WB was then added thereto, to give 50 μL of a mixture. […] As to the resulting suspension, E2 protein bound to Jurkat cells was analyzed by using FACScan.

Molecule	amount of virus in blood (HCV)	binding to HCV (HCV; lactoferrin contained in breast milk)	inhibitory action of binding of E2 protein to Jurkat cells [1]
lactoferrin: lactoferrin contained in breast milk (protein, UniProt P02788 20-710, looked up) Lactotransferrin: GRRRSVQWCAVSQPEATKCFQWQRNMRKVRGPPVSCIKRDSPIQCIQAIAENRADAVTLDGGFIYEAGLAPYKLRPVAAEVYGTERQPRTHYYAVAVVKKGGSFQLNELQGLKSCHTGLRRTAGWNVPIGTLRPFLNWTGPPEPIEAAVARFFSASCVPGADKGQFPNLCRLCAGTGENKCAFSSQEPYFSYSGAFKCLRDGAGDVAFIRESTVFEDLSDEAERDEYELLCPDNTRKPVDKFKDCHLARVPSHAVVARSVNGKEDAIWNLLRQAQEKFGKDKSPKFQLFGSPSGQKDLLFKDSAIGFSRVPPRIDSGLYLGSGYFTAIQNLRKSEEEVAARRARVVWCAVGEQELRKCNQWSGLSEGSVTCSSASTTEDCIALVLKGEADAMSLDGGYVYTAGKCGLVPVLAENYKSQQSSDPDPNCVDRPVEGYLAVAVVRRSDTSLTWNSVKGKKSCHTAVDRTAGWNIPMGLLFNQTGSCKFDEYFSQSCAPGSDPRSNLCALCIGDEQGENKCVPNSNERYYGYTGAFRCLAENAGDVAFVKDVTVLQNTDGNNNEAWAKDLKLADFALLCLDGKRKPVTEARSCHLAMAPNHAVVSRMDKVERLKQVLLHQQAKFGRNGSDCPDKFCLFQSETKNLLFNDNTECLARLHGKTTYEKYLGPQYVAGITNLKKCSTSPLLEACEFLRK	reduces an amount of virus in blood	binds to HCV	–
bLF: bovine lactoferrin protein (SERVA Electrophoresis GmbH) (protein, UniProt P24627 20-708, looked up) Lactotransferrin: APRKNVRWCTISQPEWFKCRRWQWRMKKLGAPSITCVRRAFALECIRAIAEKKADAVTLDGGMVFEAGRDPYKLRPVAAEIYGTKESPQTHYYAVAVVKKGSNFQLDQLQGRKSCHTGLGRSAGWIIPMGILRPYLSWTESLEPLQGAVAKFFSASCVPCIDRQAYPNLCQLCKGEGENQCACSSREPYFGYSGAFKCLQDGAGDVAFVKETTVFENLPEKADRDQYELLCLNNSRAPVDAFKECHLAQVPSHAVVARSVDGKEDLIWKLLSKAQEKFGKNKSRSFQLFGSPPGQRDLLFKDSALGFLRIPSKVDSALYLGSRYLTTLKNLRETAEEVKARYTRVVWCAVGPEEQKKCQQWSQQSGQNVTCATASTTDDCIVLVLKGEADALNLDGGYIYTAGKCGLVPVLAENRKSSKHSSLDCVLRPTEGYLAVAVVKKANEGLTWNSLKDKKSCHTAVDRTAGWNIPMGLIVNQTGSCAFDEFFSQSCAPGADPKSRLCALCAGDDQGLDKCVPNSKEKYYGYTGAFRCLAEDVGDVAFVKNDTVWENTNGESTADWAKNLNREDFRLLCLDGTRKPVTEAQSCHLAVAPNHAVVSRSDRAAHVKQVLLHQQALFGKNGKNCPDKFCLFKSETKNLLFNDNTECLAKLGGRPTYEEYLGTEYVTAIANLKKCSTSPLLEACAFLTR	–	–	inhibitory action of binding of the E2 protein
